Tests used:
[1] = system: angiostatin receptor in tissue sections; assay: Angiostatin staining of tissue sections of metastatic human bone marrow; type: binding; details: 100 μg/ml rh-angiostatin, anti-angiostatin antibody detection
Procedure: Angiostatin was incubated with tissue sections of metastitic human bone marrow. After washing, the tissue sections were developed with an anti-angiostatin Ab, followed by the corresponding secondary Ab conjugated to peroxidase. […] The staining was specific since only this structure and not other cells were stained.
Anti-human Angiostatin were purchased (R&D Systems: AF226). rhAngiostatin was produced by EntreMed, Inc. (Rockville, Md.). Surgical specimens of human metastases (Bouin-fixed 4-6 h, paraffin-embedded sections, 5-6 μm thick) were adsorbed on polylysine-coated slides. Tissue slides were incubated with 100 μg/ml of rh-angiostatin. The slides were washed 3 times and incubated with anti-angiostatin antibody. The slides were washed again 3 times and bound antibodies were detected using an anti-goat peroxidase-conjugate antibody.

Thrombospondin 1 (TSP-1) = molecular target: T1, Thrombospondin 1 (TSP-1) (Homo sapiens, UniProt P07996); assay: Protein-protein interaction ELISA: rhAngiostatin binding to coated protein; details: TSP-1, positive control
T1 construct: purchased Calbiochem, San Diego, Calif; 605225
T1 sequence (P07996 19-1170): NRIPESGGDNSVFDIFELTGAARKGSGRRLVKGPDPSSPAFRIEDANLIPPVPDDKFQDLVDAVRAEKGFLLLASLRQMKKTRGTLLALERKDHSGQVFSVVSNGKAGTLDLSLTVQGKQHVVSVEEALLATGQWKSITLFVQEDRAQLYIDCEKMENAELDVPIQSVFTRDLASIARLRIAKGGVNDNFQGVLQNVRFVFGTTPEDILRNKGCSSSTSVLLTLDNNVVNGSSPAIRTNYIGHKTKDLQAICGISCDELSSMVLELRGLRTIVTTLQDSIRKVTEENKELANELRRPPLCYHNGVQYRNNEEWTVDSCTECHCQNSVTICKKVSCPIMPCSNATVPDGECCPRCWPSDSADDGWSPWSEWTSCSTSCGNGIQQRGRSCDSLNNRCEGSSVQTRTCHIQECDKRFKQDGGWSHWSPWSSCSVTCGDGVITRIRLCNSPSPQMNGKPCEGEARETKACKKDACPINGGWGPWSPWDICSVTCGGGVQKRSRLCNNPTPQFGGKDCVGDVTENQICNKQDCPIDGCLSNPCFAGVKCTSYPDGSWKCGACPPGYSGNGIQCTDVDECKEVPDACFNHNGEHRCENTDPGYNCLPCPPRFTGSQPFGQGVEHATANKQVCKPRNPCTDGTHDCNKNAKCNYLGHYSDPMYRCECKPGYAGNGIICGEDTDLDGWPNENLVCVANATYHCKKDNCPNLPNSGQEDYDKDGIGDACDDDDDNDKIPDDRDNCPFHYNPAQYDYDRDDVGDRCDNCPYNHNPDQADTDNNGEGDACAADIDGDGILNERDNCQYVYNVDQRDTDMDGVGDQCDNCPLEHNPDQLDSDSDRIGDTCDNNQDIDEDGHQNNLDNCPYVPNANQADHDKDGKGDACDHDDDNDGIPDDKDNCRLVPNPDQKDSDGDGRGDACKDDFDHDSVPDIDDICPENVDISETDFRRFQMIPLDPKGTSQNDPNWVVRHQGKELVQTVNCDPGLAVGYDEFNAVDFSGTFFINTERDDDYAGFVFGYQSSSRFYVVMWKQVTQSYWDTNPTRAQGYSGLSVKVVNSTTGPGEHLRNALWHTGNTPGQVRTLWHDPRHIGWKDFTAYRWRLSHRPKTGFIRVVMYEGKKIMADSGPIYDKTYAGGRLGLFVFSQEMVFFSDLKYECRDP
Procedure: (§1) To assess protein-protein interactions, 100 ng/well of protein was coated in triplicate in 96-well plates. The plates were dried at 37° C., blocked with PBS and 3% BSA, and incubated with 10 μg/ml of rhAngiostatin in PBS+1% BSA for three hours at RT. The wells were washed three times with PBS, 3% BSA, 0.01% Tween 20 before incubation with anti-rhAngiostatin antibody (R&D Systems, Inc #AF226) at 1 μg/ml for 1 hour at RT. The wells were then washed three times with PBS, 3% BSA, 0.01% Tween 20 and incubated with […] anti-goat antibody. After washing 3 times with PBS, 0.01% Tween 20 and once with PBS, the wells were developed with p-nitrophenyl phosphate. Binding of alkaline phosphate conjugate was detected colorimetrically at […]. using an ELISA microplate reader.

VN (vitronectin) = molecular target: T2, VN (vitronectin) (Homo sapiens, UniProt P04004); assay: as above
T2 sequence (P04004 20-478): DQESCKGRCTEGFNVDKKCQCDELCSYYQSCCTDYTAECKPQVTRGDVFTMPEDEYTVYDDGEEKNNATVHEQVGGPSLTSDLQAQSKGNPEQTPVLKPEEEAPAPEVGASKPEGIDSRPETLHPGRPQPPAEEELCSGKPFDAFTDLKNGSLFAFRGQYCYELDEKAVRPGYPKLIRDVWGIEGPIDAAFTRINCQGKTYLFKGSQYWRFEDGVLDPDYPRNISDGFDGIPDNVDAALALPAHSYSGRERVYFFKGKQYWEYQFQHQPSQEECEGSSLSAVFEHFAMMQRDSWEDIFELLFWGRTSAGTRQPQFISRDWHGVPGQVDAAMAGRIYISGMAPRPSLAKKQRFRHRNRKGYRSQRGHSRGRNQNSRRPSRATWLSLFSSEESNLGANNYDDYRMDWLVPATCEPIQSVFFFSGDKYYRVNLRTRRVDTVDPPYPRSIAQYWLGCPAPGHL
Procedure: as §1

[2] = molecular target: T3, HGF (hepatocyte growth factor) (Homo sapiens, UniProt P14210); assay: as above
T3 construct: purchased Calbiochem, San Diego, Calif; 375228
T3 sequence (P14210 32-728): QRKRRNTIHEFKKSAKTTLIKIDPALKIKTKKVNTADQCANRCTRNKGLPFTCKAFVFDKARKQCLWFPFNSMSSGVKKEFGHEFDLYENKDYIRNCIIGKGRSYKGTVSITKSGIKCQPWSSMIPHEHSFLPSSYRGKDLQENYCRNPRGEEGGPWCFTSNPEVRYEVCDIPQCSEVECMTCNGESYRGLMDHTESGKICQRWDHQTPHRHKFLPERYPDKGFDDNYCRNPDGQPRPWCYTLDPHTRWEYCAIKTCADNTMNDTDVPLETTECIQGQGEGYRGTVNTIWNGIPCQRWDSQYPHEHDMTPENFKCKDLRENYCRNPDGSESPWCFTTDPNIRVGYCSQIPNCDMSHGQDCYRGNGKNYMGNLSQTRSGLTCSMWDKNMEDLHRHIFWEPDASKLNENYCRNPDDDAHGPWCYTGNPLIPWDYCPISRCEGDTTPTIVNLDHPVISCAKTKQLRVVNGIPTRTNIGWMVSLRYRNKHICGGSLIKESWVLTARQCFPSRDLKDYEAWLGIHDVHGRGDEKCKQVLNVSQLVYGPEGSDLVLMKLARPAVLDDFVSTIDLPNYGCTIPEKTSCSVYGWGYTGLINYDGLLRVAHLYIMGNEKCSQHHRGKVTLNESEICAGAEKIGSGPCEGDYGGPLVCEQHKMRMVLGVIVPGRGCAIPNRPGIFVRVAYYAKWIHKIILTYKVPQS
Procedure: as §1

FN (fibronectin) = FN (fibronectin) (Homo sapiens, UniProt P02751); assay: as above
Sequence of FN (fibronectin) (P02751 32-2477, species assumed): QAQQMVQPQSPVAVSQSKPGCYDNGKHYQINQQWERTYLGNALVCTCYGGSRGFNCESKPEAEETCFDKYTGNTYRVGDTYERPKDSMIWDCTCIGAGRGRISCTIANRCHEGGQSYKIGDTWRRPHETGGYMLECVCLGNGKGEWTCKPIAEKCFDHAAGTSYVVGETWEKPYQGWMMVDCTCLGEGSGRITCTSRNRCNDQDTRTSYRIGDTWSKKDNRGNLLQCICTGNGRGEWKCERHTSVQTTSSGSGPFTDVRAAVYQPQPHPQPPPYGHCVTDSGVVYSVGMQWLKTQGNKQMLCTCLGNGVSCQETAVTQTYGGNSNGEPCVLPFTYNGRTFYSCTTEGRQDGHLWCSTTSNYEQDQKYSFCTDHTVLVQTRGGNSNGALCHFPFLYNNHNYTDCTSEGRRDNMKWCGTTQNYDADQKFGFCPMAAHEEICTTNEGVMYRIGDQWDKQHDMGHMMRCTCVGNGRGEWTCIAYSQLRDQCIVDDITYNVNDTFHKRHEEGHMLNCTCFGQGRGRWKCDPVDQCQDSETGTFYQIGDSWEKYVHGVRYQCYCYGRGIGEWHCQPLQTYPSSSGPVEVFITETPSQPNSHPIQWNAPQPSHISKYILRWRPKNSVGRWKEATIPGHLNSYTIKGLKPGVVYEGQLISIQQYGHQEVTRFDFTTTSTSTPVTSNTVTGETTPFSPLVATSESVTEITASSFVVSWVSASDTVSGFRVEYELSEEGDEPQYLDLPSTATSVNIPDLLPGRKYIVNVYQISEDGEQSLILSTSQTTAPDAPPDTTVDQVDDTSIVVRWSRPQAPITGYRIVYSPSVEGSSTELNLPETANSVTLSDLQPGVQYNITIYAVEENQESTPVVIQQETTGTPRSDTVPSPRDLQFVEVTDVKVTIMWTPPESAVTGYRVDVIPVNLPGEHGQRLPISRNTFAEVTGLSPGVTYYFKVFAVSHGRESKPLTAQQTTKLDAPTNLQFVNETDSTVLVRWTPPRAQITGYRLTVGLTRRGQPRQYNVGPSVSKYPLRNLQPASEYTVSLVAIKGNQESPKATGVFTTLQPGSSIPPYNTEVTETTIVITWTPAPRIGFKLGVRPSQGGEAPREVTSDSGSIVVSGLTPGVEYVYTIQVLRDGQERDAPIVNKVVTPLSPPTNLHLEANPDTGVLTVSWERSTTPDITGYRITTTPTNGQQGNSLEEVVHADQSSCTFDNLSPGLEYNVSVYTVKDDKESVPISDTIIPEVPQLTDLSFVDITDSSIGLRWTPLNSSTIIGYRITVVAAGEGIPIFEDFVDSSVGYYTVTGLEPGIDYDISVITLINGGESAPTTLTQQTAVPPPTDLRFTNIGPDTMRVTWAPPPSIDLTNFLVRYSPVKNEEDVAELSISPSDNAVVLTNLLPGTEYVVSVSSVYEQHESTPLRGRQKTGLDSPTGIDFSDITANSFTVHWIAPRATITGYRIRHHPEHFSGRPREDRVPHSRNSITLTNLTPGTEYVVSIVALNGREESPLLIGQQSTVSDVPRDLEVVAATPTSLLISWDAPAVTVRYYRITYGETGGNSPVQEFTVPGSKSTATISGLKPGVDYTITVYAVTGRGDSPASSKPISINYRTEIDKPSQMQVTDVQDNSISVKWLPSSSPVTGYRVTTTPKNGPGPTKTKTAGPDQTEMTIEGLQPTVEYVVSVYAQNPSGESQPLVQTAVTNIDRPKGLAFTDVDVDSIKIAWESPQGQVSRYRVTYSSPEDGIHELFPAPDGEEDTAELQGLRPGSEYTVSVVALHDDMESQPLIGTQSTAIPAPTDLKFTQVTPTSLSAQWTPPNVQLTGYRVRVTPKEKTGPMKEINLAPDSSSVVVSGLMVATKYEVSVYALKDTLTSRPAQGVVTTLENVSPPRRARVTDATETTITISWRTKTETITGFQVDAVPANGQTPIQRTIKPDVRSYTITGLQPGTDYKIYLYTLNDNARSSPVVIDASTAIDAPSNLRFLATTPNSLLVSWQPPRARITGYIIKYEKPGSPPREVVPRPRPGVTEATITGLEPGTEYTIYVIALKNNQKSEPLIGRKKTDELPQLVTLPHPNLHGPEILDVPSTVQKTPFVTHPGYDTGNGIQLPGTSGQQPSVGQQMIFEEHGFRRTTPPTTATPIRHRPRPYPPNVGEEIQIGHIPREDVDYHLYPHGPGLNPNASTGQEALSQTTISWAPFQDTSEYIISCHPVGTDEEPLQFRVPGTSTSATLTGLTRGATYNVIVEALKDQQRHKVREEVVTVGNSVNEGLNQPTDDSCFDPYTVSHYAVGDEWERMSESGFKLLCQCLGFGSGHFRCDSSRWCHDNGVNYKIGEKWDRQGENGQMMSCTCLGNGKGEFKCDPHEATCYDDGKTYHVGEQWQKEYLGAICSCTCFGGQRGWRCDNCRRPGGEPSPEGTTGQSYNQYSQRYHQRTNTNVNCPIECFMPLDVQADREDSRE
Procedure: as §1

CD13 (Aminopeptidase N) = molecular target: T4, CD13 (Aminopeptidase N) (Sus scrofa, UniProt P15145); assay: as above
T4 construct: purchased Sigma, St Louis, Mo; L-9776
T4 sequence (P15145 1-963): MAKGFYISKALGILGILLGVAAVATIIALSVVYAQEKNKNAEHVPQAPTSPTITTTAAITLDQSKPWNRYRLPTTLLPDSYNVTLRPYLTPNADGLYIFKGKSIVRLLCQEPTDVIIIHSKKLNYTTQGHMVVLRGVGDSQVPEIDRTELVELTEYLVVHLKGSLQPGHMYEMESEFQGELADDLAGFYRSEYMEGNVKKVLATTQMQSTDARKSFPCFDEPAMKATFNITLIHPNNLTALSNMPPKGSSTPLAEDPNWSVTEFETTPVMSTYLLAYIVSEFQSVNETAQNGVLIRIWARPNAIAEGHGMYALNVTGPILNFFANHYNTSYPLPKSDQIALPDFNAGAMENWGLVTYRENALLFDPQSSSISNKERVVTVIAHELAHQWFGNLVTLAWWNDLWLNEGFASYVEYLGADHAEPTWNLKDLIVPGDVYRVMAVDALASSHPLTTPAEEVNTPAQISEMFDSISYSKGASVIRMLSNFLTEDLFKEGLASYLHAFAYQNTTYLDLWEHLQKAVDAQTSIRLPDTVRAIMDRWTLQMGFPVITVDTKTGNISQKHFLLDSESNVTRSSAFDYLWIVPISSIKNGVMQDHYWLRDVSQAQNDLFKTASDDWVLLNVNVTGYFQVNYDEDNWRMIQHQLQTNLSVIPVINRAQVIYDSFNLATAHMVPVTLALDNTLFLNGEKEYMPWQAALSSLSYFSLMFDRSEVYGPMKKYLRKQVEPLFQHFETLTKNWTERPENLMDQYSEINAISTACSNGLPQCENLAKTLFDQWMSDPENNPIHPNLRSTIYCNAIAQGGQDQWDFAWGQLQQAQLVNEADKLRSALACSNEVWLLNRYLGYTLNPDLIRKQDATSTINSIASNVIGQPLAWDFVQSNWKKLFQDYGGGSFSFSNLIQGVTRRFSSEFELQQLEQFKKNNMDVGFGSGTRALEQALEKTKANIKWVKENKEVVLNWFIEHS
Procedure: as §1

LN (laminin) = assay: as above
Procedure: as §1

COL IV (collagen IV) = assay: as above
Procedure: as §1

B1: angiostatin: rh-Angiostatin produced by EntreMed, Inc. (protein)
chain: VYLSECKTGNGKNYRGTMSKTKNGITCQKWSSTSPHRPRFSPATHPSEGLEENYCRNPDNDPQGPWCYTTDPEKRYDYCDILECEEECMHCSGENYDGKISKTMSGLECQAWDSQSPHAHGYIPSKFPNKNLKKNYCRNPDRELRPWCFTTDPNKRWELCDIPRCTTPPPSSGPTYQCLKGTGENYRGNVAVTVSGHTCQHWSAQTPHTHNRTPENFPCKNLDENYCRNPDGKRAPWCHTTNSQVRWEYCKIPSCDSSPV
With B1 the “staining of tissue sections” value [1] was “vessel-like”, the “binding of angiostatin to coated protein” value (Thrombospondin 1 (TSP-1)) was “binds” and the “binding of angiostatin to coated protein” value (VN (vitronectin)) was “not”. For the same molecule, the “binding of angiostatin to coated protein” value [2] was “binds”, the “binding of angiostatin to coated protein” value (FN (fibronectin)) was “not” and the “binding of angiostatin to coated protein” value (CD13 (Aminopeptidase N)) was “binds”. The “binding of angiostatin to coated protein” value (LN (laminin)) was “not” and the “binding of angiostatin to coated protein” value (COL IV (collagen IV)) was “not”.
